# Test results as given in article PMC3985956 (Biochemistry, 2014).
# B1: CheA, full length, purified, for reconstitution with Tsr membranes (enzyme)
# chain: MSMDISDFYQTFFDEADELLADMEQHLLVLQPEAPDAEQLNAIFRAAHSIKGGAGTFGFSVLQETTHLMENLLDEARRGEMQLNTDIINLFLETKDIMQEQLDAYKQSQEPDAASFDYICQALRQLALEAKGETPSAVTRLSVVAKSEPQDEQSRSQSPRRIILSRLKAGEVDLLEEELGHLTTLTDVVKGADSLSAILPGDIAEDDITAVLCFVIEADQITFETVEVSPKISTPPVLKLAAEQAPTGRVEREKTTRSNESTSIRVAVEKVDQLINLVGELVITQSMLAQRSSELDPVNHGDLITSMGQLQRNARDLQESVMSIRMMPMEYVFSRYPRLVRDLAGKLGKQVELTLVGSSTELDKSLIERIIDPLTHLVRNSLDHGIELPEKRLAAGKNSVGNLILSAEHQGGNICIEVTDDGAGLNRERILAKAASQGLTVSENMSDDEVAMLIFAPGFSTAEQVTDVSGRGVGMDVVKRNIQKMGGHVEIQSKQGTGTTIRILLPLTLAILDGMSVRVADEVFILPLNAVMESLQPREADLHPLAGGERVLEVRGEYLPIVELWKVFNVAGAKTEATQGIVVILQSGGRRYALLVDQLIGQHQVVVKNLESNYRKVPGISAATILGDGSVALIVDVSALQAINREQRMANTAA
# Molecular target: the molecule itself
# Experiment: electron cryotomography with subvolume averaging
protein,measurement,value
B1,binding result,binds
